Measured values: patent US20260216242A1 (ALMAC DISCOVERY, published 2026)

Columns and labels:
[1] = molecular target: T1, human ALPL (tissue non-specific alkaline phosphatase) expressed on the surface of CHO cells (human, UniProt P05186 18-501); assay: flow cytometry, CHO-ALPL cells
T1 construct: whole, on cells; The cell-surface form has none; also called CHO-ALPL; hALPL
T1 sequence (looked up): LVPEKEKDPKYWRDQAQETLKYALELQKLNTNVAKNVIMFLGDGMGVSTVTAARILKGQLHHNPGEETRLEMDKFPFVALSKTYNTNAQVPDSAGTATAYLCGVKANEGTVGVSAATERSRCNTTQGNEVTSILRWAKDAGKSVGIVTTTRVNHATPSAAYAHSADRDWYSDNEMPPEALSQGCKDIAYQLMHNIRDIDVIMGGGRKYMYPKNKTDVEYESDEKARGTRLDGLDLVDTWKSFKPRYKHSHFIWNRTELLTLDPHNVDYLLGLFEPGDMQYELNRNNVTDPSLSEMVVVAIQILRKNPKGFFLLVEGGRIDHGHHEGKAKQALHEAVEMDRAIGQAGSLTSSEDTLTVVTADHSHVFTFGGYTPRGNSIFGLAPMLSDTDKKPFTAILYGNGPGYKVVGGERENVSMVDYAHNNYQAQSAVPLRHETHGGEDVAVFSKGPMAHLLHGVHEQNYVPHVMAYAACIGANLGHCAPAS

[2] = molecular target: T2, human ALPI (intestinal alkaline phosphatase) expressed on the surface of CHO cells (human, UniProt P09923 20-503); assay: flow cytometry, CHO-ALPI cells
T2 construct: whole, on cells; The cell-surface form has none; also called CHO-ALPI; hALPI
T2 sequence (looked up): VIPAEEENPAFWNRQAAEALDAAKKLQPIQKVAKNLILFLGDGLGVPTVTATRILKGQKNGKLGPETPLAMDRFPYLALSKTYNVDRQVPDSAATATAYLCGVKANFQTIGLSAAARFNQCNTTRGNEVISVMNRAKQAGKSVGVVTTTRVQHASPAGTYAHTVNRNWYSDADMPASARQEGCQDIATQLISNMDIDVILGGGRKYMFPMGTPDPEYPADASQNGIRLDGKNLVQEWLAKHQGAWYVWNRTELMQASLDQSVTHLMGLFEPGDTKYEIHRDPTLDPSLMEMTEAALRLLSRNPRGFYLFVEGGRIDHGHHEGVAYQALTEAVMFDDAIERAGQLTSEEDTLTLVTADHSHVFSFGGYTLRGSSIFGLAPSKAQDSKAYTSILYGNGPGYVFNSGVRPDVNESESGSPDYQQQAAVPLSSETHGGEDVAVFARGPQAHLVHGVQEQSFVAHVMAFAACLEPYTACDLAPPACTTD

[3] = molecular target: T3, human ALPPL2 (alkaline phosphatase, germ cell type) expressed on the surface of CHO cells (human, UniProt P10696 20-503); assay: flow cytometry on CHO-ALPPL2 cells, apparent KD (KDapp)
T3 construct: whole, on cells; The cell-surface form has none; also called CHO-ALPPL2; hALPPL2
Procedure: (§1) Biparatopic VHH-hFc drug conjugates were assessed for human ALPP, ALPPL2, ALPI and ALPL cell-surface binding by flow cytometry. Binders were screened on CHO cells stably expressing human ALPP, ALPPL2, ALPI or ALPL.
(§2) Cell surface binding of test agents to hALPP isoforms was characterized in four CHO-ALPP isoform transfectant cell lines (CHO-ALPP, CHO-ALPPL2, CHO-ALPI and CHO-ALPL) and the resulting KDapp values determined. Adherent cells were detached from tissue culture flasks by incubating with 0.1% EDTA/PBS solution at 37° C. for […] or until cells detached easily. Cells were re-suspended in ice-cold PBS/2% FCS in 15 ml tubes and centrifuged at 1700 rpm for 5 mins at 4° C. Supernatant was removed and the cell pellet re-suspended in PBS/2% FCS. […] Cells were incubated with 100 μl of test agents at a range of concentrations, plus controls for 1 hr on ice. The sample plate was centrifuged at 1700 rpm for 5 mins at 4° C. The supernatant was removed, and a wash performed by re-suspending the cell pellets in 0.25 mL of ice-cold PBS/2% FCS using a multichannel pipette. Samples were again centrifuged at 1700 rpm for 5 min at 4° C. Supernatant was removed and two further washes performed as described. After the final wash and centrifugation step, excess liquid was removed by blotting the plate on tissue paper. Binding of VHH-hFc agents was determined by adding 100 μl of Fitc-anti-human Ab (ThermoFisher) and incubating for 30 mins on ice in the dark. Wash steps were performed as described previously. All cell pellets were finally re-suspended in 0.28 ml of ice-cold PBS/2% FCS and left on ice in the dark prior to analysis on a Merck-Millipore Guava EasyCyte HT or Thermo Fisher Attune N×T flow cytometer.

[4] = molecular target: T1, human ALPL (tissue non-specific …); assay: cell-based or functional assay
[5] = molecular target: T2, human ALPI (intestinal alkaline …); assay: cell-based or functional assay
[6] = molecular target: T3, human ALPPL2 (alkaline phosphatase, …); assay: cell-based or functional assay
[7] = molecular target: T4, human ALPP (alkaline phosphatase, placental type) expressed on the surface of CHO cells (human, UniProt P05187 23-506); assay: flow cytometry on CHO-ALPP cells, apparent KD (KDapp)
T4 construct: also called CHO-ALPP; hALPP
Procedure: as §1, §2

T3 sequence (P10696 20-503): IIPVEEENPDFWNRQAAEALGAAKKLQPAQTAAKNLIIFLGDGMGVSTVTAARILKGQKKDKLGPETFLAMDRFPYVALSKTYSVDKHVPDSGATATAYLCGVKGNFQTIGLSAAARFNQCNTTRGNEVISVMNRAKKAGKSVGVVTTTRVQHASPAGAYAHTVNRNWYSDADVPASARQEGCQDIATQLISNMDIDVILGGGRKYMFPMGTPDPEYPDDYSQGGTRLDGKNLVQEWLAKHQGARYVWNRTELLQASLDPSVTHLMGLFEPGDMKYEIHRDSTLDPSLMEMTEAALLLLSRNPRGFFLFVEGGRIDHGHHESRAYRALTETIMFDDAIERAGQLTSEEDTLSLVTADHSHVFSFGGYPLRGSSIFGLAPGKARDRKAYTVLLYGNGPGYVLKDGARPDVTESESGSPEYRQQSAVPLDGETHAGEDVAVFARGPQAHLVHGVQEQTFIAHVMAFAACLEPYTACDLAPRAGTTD
T4 sequence (P05187 23-506 limits assumed): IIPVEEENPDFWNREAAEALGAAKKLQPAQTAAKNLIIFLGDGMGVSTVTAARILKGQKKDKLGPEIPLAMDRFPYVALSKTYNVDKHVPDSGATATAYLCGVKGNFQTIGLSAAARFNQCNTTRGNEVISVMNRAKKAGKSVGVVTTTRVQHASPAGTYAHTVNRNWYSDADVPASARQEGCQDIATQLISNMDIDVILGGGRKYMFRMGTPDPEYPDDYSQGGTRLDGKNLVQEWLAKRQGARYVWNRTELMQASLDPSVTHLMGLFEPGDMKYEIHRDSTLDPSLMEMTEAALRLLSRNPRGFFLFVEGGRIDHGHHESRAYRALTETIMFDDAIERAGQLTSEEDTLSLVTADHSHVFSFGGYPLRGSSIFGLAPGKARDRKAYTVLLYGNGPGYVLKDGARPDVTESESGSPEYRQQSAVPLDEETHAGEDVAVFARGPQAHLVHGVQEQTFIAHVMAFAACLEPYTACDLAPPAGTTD

Binder | binding result [1] | binding result [2] | Kd [3] | IC50 at 96 h, cell-killing of CHO-ALPL cells [4] | IC50 at 96 h, cell-killing of CHO-ALPI cells (estimated from data extrapolation) [5] | IC50 at 96 h, cell-killing of CHO-ALPPL2 cells [6] | Kd [7] | IC50 at 96 h, cell-killing of CHO-ALPI cells [5]
D10 E10-hFc (S239/442C T366Y/Y407T), [G4S]1 linker, MC-vc-PAB-MMAE conjugate, #678 (Fc fusion, DAR 4, MC-vc-PAB-MMAE on Cys of S239C and S442C (EU numbering), Biparatopic knob-into-hole VHH-hFc heterodimer, DAR 4; also called D10-E10-hFc-vcPAB-MMAE; D10-E10 hFc-vc-MMAE) chain 1: QVQLVESGGGLVQPGGSLRLSCAASGSIFSVNTMGWYRQAPGKQRDLVAVATSGGTIHYADSVKGRFTISRDNAKNTVYLQMNSLKPEDTAVYYCNLVVPYGMIAGDHDYWGQGTKVTVSSGGGGSEPKSSDKTHTCPPCPAPELLGGPCVFLFPPKPKDTLMISRTPEVTCVVVDVSHEDPEVKFNWYVDGVEVHNAKTKPREEQYNSTYRVVSVLTVLHQDWLNGKEYKCKVSNKALPAPIEKTISKAKGQPREPQVYTLPPSRDELTKNQVSLYCLVKGFYPSDIAVEWESNGQPENNYKTTPPVLDSDGSFFLYSKLTVDKSRWQQGNVFSCSVMHEALHNHYTQKSLCLSPGK chain 2: QVQLVESGGGLVQAGGSLRLSCAVSGRALSDYNIGWFRQAPGKEREFVARKTWDGSSTRYDDSVKGRFTVSIEDAKNTAYLQMSSLKTEDTAVYYCAAGRYSRARGWEYDYWGQGTQVTVSSGGGGSEPKSSDKTHTCPPCPAPELLGGPCVFLFPPKPKDTLMISRTPEVTCVVVDVSHEDPEVKFNWYVDGVEVHNAKTKPREEQYNSTYRVVSVLTVLHQDWLNGKEYKCKVSNKALPAPIEKTISKAKGQPREPQVYTLPPSRDELTKNQVSLTCLVKGFYPSDIAVEWESNGQPENNYKTTPPVLDSDGSFFLTSKLTVDKSRWQQGNVFSCSVMHEALHNHYTQKSLCLSPGK | no binding (tested: 350 nM (highest concentration)) | no binding (tested: 350 nM (highest concentration)) | 5 nM | > 1000 nM | ~972 nM | 12.8 nM | 6.9 nM | 
D10 F05-hFc (S239/442C T366Y/Y407T), [G4S]1 linker, MC-vc-PAB-MMAE conjugate, #679 (Fc fusion, DAR 4, MC-vc-PAB-MMAE on Cys of S239C and S442C (EU numbering), Biparatopic knob-into-hole VHH-hFc heterodimer, DAR 4; also called D10-F05-hFc-vcPAB-MMAE; D10-F05 hFc-vc-MMAE) chain 1: QVQLVESGGGLVQPGGSLRLSCAASGSIFSVNTMGWYRQAPGKQRDLVAVATSGGTIHYADSVKGRFTISRDNAKNTVYLQMNSLKPEDTAVYYCNLVVPYGMIAGDHDYWGQGTKVTVSSGGGGSEPKSSDKTHTCPPCPAPELLGGPCVFLFPPKPKDTLMISRTPEVTCVVVDVSHEDPEVKFNWYVDGVEVHNAKTKPREEQYNSTYRVVSVLTVLHQDWLNGKEYKCKVSNKALPAPIEKTISKAKGQPREPQVYTLPPSRDELTKNQVSLYCLVKGFYPSDIAVEWESNGQPENNYKTTPPVLDSDGSFFLYSKLTVDKSRWQQGNVFSCSVMHEALHNHYTQKSLCLSPGK chain 2: QVQLVESGGGLVQAGGSLRLSCAASGRAFGDYNIGWFRQAPGKEREFVARRTWDGSSTRYDDSVKGRFTVSIDNAKNTAYLQMNSLKTEDTAVYYCAAGRYSRVRGWEYDYWGQGTQVTVSSGGGGSEPKSSDKTHTCPPCPAPELLGGPCVFLFPPKPKDTLMISRTPEVTCVVVDVSHEDPEVKFNWYVDGVEVHNAKTKPREEQYNSTYRVVSVLTVLHQDWLNGKEYKCKVSNKALPAPIEKTISKAKGQPREPQVYTLPPSRDELTKNQVSLTCLVKGFYPSDIAVEWESNGQPENNYKTTPPVLDSDGSFFLTSKLTVDKSRWQQGNVFSCSVMHEALHNHYTQKSLCLSPGK | no binding (tested: 350 nM (highest concentration)) | no binding (tested: 350 nM (highest concentration)) | 5.2 nM | > 1000 nM |  | 16.1 nM | 6.6 nM | > 1000 nM
D10 E10-hFc (S239/442C T366Y/Y407T), [G4S]3 linker, MC-vc-PAB-MMAE conjugate, #636 (Fc fusion, DAR 4, MC-vc-PAB-MMAE on Cys of S239C and S442C (EU numbering), Biparatopic knob-into-hole VHH-hFc heterodimer, DAR 4; also called D10-E10 hFc-vcPAB-MMAE; D10-E10 hFc-vc-MMAE) chain 1: QVQLVESGGGLVQPGGSLRLSCAASGSIFSVNTMGWYRQAPGKQRDLVAVATSGGTIHYADSVKGRFTISRDNAKNTVYLQMNSLKPEDTAVYYCNLVVPYGMIAGDHDYWGQGTKVTVSSGGGGSGGGGSGGGGSEPKSSDKTHTCPPCPAPELLGGPCVFLFPPKPKDTLMISRTPEVTCVVVDVSHEDPEVKFNWYVDGVEVHNAKTKPREEQYNSTYRVVSVLTVLHQDWLNGKEYKCKVSNKALPAPIEKTISKAKGQPREPQVYTLPPSRDELTKNQVSLYCLVKGFYPSDIAVEWESNGQPENNYKTTPPVLDSDGSFFLYSKLTVDKSRWQQGNVFSCSVMHEALHNHYTQKSLCLSPGK chain 2: QVQLVESGGGLVQAGGSLRLSCAVSGRALSDYNIGWFRQAPGKEREFVARKTWDGSSTRYDDSVKGRFTVSIEDAKNTAYLQMSSLKTEDTAVYYCAAGRYSRARGWEYDYWGQGTQVTVSSGGGGSGGGGSGGGGSEPKSSDKTHTCPPCPAPELLGGPCVFLFPPKPKDTLMISRTPEVTCVVVDVSHEDPEVKFNWYVDGVEVHNAKTKPREEQYNSTYRVVSVLTVLHQDWLNGKEYKCKVSNKALPAPIEKTISKAKGQPREPQVYTLPPSRDELTKNQVSLTCLVKGFYPSDIAVEWESNGQPENNYKTTPPVLDSDGSFFLTSKLTVDKSRWQQGNVFSCSVMHEALHNHYTQKSLCLSPGK | no binding (tested: 350 nM (highest concentration)) | no binding (tested: 350 nM (highest concentration)) | 4.7 nM | > 1000 nM |  | 12.5 nM | 6.8 nM | > 1000 nM
D10 F05-hFc (S239/442C T366Y/Y407T), [G4S]3 linker, MC-vc-PAB-MMAE conjugate, #637 (Fc fusion, DAR 4, MC-vc-PAB-MMAE on Cys of S239C and S442C (EU numbering), Biparatopic knob-into-hole VHH-hFc heterodimer, DAR 4; also called D10-F05 hFc-vcPAB-MMAE; D10-F05 hFc-vc-MMAE) chain 1: QVQLVESGGGLVQPGGSLRLSCAASGSIFSVNTMGWYRQAPGKQRDLVAVATSGGTIHYADSVKGRFTISRDNAKNTVYLQMNSLKPEDTAVYYCNLVVPYGMIAGDHDYWGQGTKVTVSSGGGGSGGGGSGGGGSEPKSSDKTHTCPPCPAPELLGGPCVFLFPPKPKDTLMISRTPEVTCVVVDVSHEDPEVKFNWYVDGVEVHNAKTKPREEQYNSTYRVVSVLTVLHQDWLNGKEYKCKVSNKALPAPIEKTISKAKGQPREPQVYTLPPSRDELTKNQVSLYCLVKGFYPSDIAVEWESNGQPENNYKTTPPVLDSDGSFFLYSKLTVDKSRWQQGNVFSCSVMHEALHNHYTQKSLCLSPGK chain 2: QVQLVESGGGLVQAGGSLRLSCAASGRAFGDYNIGWFRQAPGKEREFVARRTWDGSSTRYDDSVKGRFTVSIDNAKNTAYLQMNSLKTEDTAVYYCAAGRYSRVRGWEYDYWGQGTQVTVSSGGGGSGGGGSGGGGSEPKSSDKTHTCPPCPAPELLGGPCVFLFPPKPKDTLMISRTPEVTCVVVDVSHEDPEVKFNWYVDGVEVHNAKTKPREEQYNSTYRVVSVLTVLHQDWLNGKEYKCKVSNKALPAPIEKTISKAKGQPREPQVYTLPPSRDELTKNQVSLTCLVKGFYPSDIAVEWESNGQPENNYKTTPPVLDSDGSFFLTSKLTVDKSRWQQGNVFSCSVMHEALHNHYTQKSLCLSPGK | no binding (tested: 350 nM (highest concentration)) | no binding (tested: 350 nM (highest concentration)) | 3.5 nM | > 1000 nM |  | 13 nM | 7.4 nM | > 1000 nM
